T1: huNectin4-His (human, UniProt Q96NY8 32-349)
T1 construct: Immobilized on the SPR chip; also called humanNectin4; human Nectin4; not shown: His tag
T1 sequence (looked up): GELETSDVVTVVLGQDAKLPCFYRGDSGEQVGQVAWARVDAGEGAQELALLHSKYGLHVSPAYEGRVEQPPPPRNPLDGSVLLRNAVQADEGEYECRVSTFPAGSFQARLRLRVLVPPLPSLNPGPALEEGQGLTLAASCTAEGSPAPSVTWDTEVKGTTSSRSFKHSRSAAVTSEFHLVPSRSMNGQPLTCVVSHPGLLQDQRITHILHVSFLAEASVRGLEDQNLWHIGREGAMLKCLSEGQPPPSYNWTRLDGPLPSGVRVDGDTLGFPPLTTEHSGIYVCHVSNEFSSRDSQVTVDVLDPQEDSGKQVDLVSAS

T2: recombinant human Nectin4 antigen (human, UniProt Q96NY8 32-349)
T2 construct: construct not described
T2 sequence (looked up): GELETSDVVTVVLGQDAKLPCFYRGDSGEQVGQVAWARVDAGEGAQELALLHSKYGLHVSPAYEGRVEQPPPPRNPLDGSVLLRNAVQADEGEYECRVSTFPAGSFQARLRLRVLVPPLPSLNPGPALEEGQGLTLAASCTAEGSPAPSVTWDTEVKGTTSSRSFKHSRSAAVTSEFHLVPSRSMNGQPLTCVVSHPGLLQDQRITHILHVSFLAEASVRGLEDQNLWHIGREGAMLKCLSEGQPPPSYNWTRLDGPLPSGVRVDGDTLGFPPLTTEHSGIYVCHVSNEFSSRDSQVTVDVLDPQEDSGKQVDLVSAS

T3: human Nectin-4 on cells (human, UniProt Q96NY8 32-510)
T3 construct: whole, on cells; also called HEK293 cells expressing human Nectin-4; T47D cells that express human Nectin-4
T3 sequence (looked up): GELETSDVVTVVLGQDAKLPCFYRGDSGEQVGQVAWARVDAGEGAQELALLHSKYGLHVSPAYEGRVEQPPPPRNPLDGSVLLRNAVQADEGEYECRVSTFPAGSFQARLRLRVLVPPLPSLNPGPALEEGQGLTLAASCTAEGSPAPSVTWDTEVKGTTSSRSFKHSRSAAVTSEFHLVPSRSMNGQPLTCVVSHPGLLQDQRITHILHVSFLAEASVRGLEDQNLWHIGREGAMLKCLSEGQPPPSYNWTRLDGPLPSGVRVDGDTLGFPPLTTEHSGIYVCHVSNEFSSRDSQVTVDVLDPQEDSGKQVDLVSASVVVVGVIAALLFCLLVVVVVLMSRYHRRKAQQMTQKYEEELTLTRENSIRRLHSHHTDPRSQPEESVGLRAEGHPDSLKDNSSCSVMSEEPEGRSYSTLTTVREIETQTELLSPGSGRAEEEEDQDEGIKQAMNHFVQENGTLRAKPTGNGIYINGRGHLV


How the values were obtained:
huNectin4-His [1] = target: T1, huNectin4-His; assay: SPR, huNectin4-His immobilized, pH 6.5
Procedure: (§1) Binding kinetics of anti-Nectin4 antibodies were measured by surface plasmon resonance using a SPR2/4 instrument (Sierra Sensors, Hamburg, Germany) and flat amine sensor chips. The SPR sensor contained four flow cells (FC1-FC4), each of which was addressed individually or in groups. huNectin4-His was immobilized in FC2, and cynoNectin4-mFc in FC4. No protein was immobilized in FC1 and FC3 which were used as control surfaces for FC2 and FC4, respectively.
(§2) All injections were done at a flow rate of 25 μL/min at 25° C. The sensor surface was activated with 1-ethyl-3-(3-dimethylaminopropyl)-carbodiimide (EDC) and N-hydroxysuccinimide (NHS) (200 mM/50 mM) for 480 seconds. HuNectin4-His (2 μg/mL in 10 mM NaAc, pH4.5) was injected for 480s and the surface was inactivated by injecting 1M ethanolamine-HCl for 480s. CynoNectin4 was immobilized using the same conditions as described for huNectin4-His, except that the cynoNectin4 was diluted into 10 mM NaAc buffer having pH 5.0. The control surface was activated and deactivated using the same conditions, but without injecting protein. PBST buffer (PBS pH 7.4 with 0.05% TWEEN20™) was used as running buffer for the surface preparation. The running solution was switched to PBST with 30 mM sodium bicarbonate with the pH adjusted as indicated in the figures before the analyte injections. The instrument was equilibrated with the running solution for one hour before the first analyte injection.
(§3) The off-rate was measured for 360s. The chip surface was regenerated after each cycle of interaction analysis by injecting 6 μL of 10 mM glycine (pH 2.0). Flow cells 1 and 3 without immobilized protein were used as control surfaces for reference subtraction.

huNectin4-His [2] = target: T1, huNectin4-His; assay: SPR, huNectin4-His immobilized, pH 7.4
Procedure: as §1, §2, §3

[3] = target: T2, recombinant human Nectin4 antigen; assay: ELISA, coated antigen, PSB pH 7.4
Procedure: 1) Coat ELISA plates with 100 μL of 1 μg/mL recombinant human Nectin4 antigen or cynoNectin4 antigen in carbonate-bicarbonate coating buffer. […] 2) Cover plates with sealing film and incubate overnight at 4° C. [0444] 3) Decant plates and tap out residual liquid on a stack of paper towels. [0445] 4) Wash wells twice by dispensing 200 μL of pH 6.0 or pH 7.4 ELISA incubation buffer to the wells and completely aspirate the contents. [0446] 5) Add 200 μL of pH 6.0 or pH 7.4 ELISA incubation buffer to the wells. Cover with sealing film and place the plate onto a plate shaker set to 50 rpm for 60 minutes at room temperature. [0447] 6) Decant plates and tap out residual liquid on a stack of paper towels. […] 7) Serially dilute test articles in 3-fold dilutions starting at 3000 ng/mL in pH 6.0 or pH 7.4 ELISA incubation buffer. […] 8) Add 100 μL/well of diluted test articles to the plates [0450] 9) Cover with sealing film and place the plates onto a plate shaker set to 50 rpm for 60 minutes at room temperature. [0451] 10) Decant plates and tap out residual liquid on a stack of paper towels. [0452] 11) Wash wells three times by dispensing 200 μL of pH 6.0 or pH 7.4 ELISA wash buffer to the wells and completely aspirate the contents. […] 12) Dilute the HRP secondary antibody at 1:2500 in pH 6.0 or pH 7.4 ELISA incubation buffer. [0454] […]

human Nectin-4 on cells = target: T3, human Nectin-4 on cells; assay: FACS, HEK293 cells expressing human Nectin-4
Procedure: FACS analysis was carried out using HEK293 cells expressing human Nectin-4.

huNectin4-His [4] = target: T1, huNectin4-His; assay: SPR, huNectin4-His immobilized, pH 6.5; pH 6.5
Procedure: as §1, §2, §3

huNectin4-His [5] = target: T1, huNectin4-His; assay: SPR, huNectin4-His immobilized, pH 7.4; pH 7.4
Procedure: as §1, §2, §3

| Binder | Kd (huNectin4-His [1]) [pM] | Kd (huNectin4-His [2]) [pM] | EC50 [3] [µg/mL] | Ratio (pH 7.4/6.0) of EC50 (human Nectin-4 on cells) | koff (huNectin4-His [1]) [s⁻¹] | kon (huNectin4-His [1]) [M⁻¹ s⁻¹] | koff (huNectin4-His [2]) [s⁻¹] | kon (huNectin4-His [2]) [M⁻¹ s⁻¹] | Kd (huNectin4-His [4]) [pM] | koff (huNectin4-His [4]) [s⁻¹] | kon (huNectin4-His [4]) [M⁻¹ s⁻¹] | Kd (huNectin4-His [5]) [pM] | koff (huNectin4-His [5]) [s⁻¹] | kon (huNectin4-His [5]) [M⁻¹ s⁻¹] |
| --- | --- | --- | --- | --- | --- | --- | --- | --- | --- | --- | --- | --- | --- | --- |
| BAP-143-wildtype (antibody, V domains shown, 150 kDa used in SPR; also called BAP143-00-00; benchmark (BM)) VH: EVQLVESGGGLVQPGGSLRLSCAASGFTFSSYNMNWVRQAPGKGLEWVSYISSSSSTIYYADSVKGRFTISRDNAKNSLSLQMNSLRDEDTAVYYCARAYYYGMDVWGQGTTVTVSS VL: DIQMTQSPSSVSASVGDRVTITCRASQGISGWLAWYQQKPGKAPKFLIYAASTLQSGVPSRFSGSGSGTDFTLTISSLQPEDFATYYCQQANSFPPTFGGGTKVEIK | 102 | 127 | 0.0216 | – | – | – | – | – | – | – | – | – | – | – |
| BAP-143-06-33-03 (antibody, V domains shown, Used as a conjugate with a linker payload (CAB ADC)) VH: QVQLVQSGAEVKKPGASVKVSCKASGFTFSSYNMNWVRQARGQRLEWIGYISSSSSTIYYADSVKGRFTISRDNSKNTLYLQMNSLRAEDTAVYYCARAYYYGMDKWGQGTLVTVSS VL: DIQMTQSPSSVSASVGDRVTITCRASQGISGWLAWYQQKPGKAPKFLIYAASTLQSGVPSRFSGSGSGTDFTLTISSLQPEDFATYYCQQANSEPPTFGGGTKVEIK | – | – | – | 2.8 | – | – | – | – | – | – | – | – | – | – |
| BAP-143-06-24-16 (antibody, V domains shown, Used as a conjugate with a linker payload (CAB ADC)) VH: EVQLVQSGAEVKKPGATVKISCKVSGFTFSSYNMNWIRQSPSRGLEWLGYISSSSSTIYYADSVKGRFTISRDNSKNTLYLQMNSLRAEDTAVYYCARAYYYGDDVWGQGTLVTVSS VL: DIQMTQSPSSVSASVGDRVTITCHASQGISGWLAWYQQKPGKAPKFLIYAASTLQSGVPSRFSGSGSGTDFTLTISSLQPEDFATYYCQQANSFPPTFGGGTKVEIK | 4.87 | 6.7 | 0.133 | 1.4 | 9.92e-06 | 2.04e+06 | 5.21e-06 | 778000 | – | – | – | – | – | – |
| BAP-143-00-01 (antibody, V domains shown, Used as a conjugate with a linker payload (CAB ADC)) VH: EVQLVESGGGLVQPGGSLRLSCAASGFTFSSYNMNWVRQAPGKGLEWVSYISSSSSTIYYADSVKGRFTISRDNAKNSLSLQMNSLRDEDTAVYYCARAYYYGMDVWGQGTTVTVSS VL: DIQMTQSPSSVSASVGDRVTITCRASQGISGWEAWYQQKPGKAPKFLIYAASTLQSGVPSRFSGSGSGTDFTLTISSLQPEDFATYYCQQANSFPPTFGGGTKVEIK | 785 | 1810 | – | 2.2 | 0.000474 | 605000 | 0.000517 | 285000 | – | – | – | – | – | – |
| BAP-143-07-03-12 (antibody, V domains shown, Used as a conjugate with a linker payload (CAB ADC)) VH: EVQLVESGGGLVQPGGSLRLSCAASGFTFSSYNMNWVRQAPGKGLEWVSYISSSSSTIYYADSVKGRFTISRDNAKNSLSLQMNSLRDEDTAVYYCARAYYYGMDKWGQGTTVTVSS VL: DIQMTQSPSSVSASVGDRVTITCRASQGISGWEAWYQQKPGKAPKFLIYAASTLQSGVPSRFSGSGSGTDFTLTISSLQPEDFATYYCQQANSFPPTFGGGTKVEIK | 641 | 925 | – | 2 | 0.000483 | 754000 | 0.000401 | 434000 | – | – | – | – | – | – |
| BAP-143-00-02 (antibody, V domains shown, Used as a conjugate with a linker payload (CAB ADC)) VH: EVQLVESGGGLVQPGGSLRLSCAASGFTFSSYNMNWVRQAPGKGLEWVSYISSSSSTIYYADSVKGRFTISRDNAKNSLSLQMNSLRDEDTAVYYCARAYYYGMDVWGQGTTVTVSS VL: DIQMTQSPSSVSASVGDRVTITCRASQGISGWLAWYQQKPGKAPKFLIYAASTLQSGVPSRFSGSGSGTDFTLTISSLQPEDFATYYCQQANSEPPTFGGGTKVEIK | – | – | – | – | – | – | – | – | 9310 | 0.00574 | 617000 | 9760 | 0.00478 | 490000 |
| BAP-143-06-33-16 (antibody, V domains shown, Used as a conjugate with a linker payload (CAB ADC)) VH: EVQLVQSGAEVKKPGATVKISCKVSGFTFSSYNMNWIRQSPSRGLEWLGYISSSSSTIYYADSVKGRFTISRDNSKNTLYLQMNSLRAEDTAVYYCARAYYYGDDVWGQGTLVTVSS VL: DIQMTQSPSSVSASVGDRVTITCRASQGISGWEAWYQQKPGKAPKFLIYAASTLQSGVPSRFSGSGSGTDFTLTISSLQPEDFATYYCQQANSFPPTFGGGTKVEIK | 28.2 | 170 | – | 1.5 | 5.94e-05 | 2.11e+06 | 2.01e-05 | 119000 | – | – | – | – | – | – |

Reference: patent US20230235054A1 (BIOATLA, published 2023)
